Columns and labels:
Test in all cases: EMSA; with POLγB; 10 mM Mg2+, 3 mM dCTP, 0.3 mM ddGTP; EMSA: 15 µl, 10 fmol DNA, 450 fmol POLγA, 1.8 pmol POLγB where indicated; 20 mM Tris-HCl pH 7.5, 1 mM DTT, 0.1 mg/ml BSA, 10 mM MgCl2, 10% glycerol, 3 mM dCTP
[1] = biological target: POLγA G268A;POLγB (human?;human?, UniProt P54098;Q9UHN1 26-1239;25-485, G268A|)
[2] = biological target: POLγA L304R;POLγB (human?;human?, UniProt P54098;Q9UHN1 26-1239;25-485, L304R|)
[3] = biological target: POLγA R232H;POLγB (human?;human?, UniProt P54098;Q9UHN1 26-1239;25-485, R232H|)
Chain of POLγA R232H;POLγB (P54098 26-1239 R232H, chain 1 of 2): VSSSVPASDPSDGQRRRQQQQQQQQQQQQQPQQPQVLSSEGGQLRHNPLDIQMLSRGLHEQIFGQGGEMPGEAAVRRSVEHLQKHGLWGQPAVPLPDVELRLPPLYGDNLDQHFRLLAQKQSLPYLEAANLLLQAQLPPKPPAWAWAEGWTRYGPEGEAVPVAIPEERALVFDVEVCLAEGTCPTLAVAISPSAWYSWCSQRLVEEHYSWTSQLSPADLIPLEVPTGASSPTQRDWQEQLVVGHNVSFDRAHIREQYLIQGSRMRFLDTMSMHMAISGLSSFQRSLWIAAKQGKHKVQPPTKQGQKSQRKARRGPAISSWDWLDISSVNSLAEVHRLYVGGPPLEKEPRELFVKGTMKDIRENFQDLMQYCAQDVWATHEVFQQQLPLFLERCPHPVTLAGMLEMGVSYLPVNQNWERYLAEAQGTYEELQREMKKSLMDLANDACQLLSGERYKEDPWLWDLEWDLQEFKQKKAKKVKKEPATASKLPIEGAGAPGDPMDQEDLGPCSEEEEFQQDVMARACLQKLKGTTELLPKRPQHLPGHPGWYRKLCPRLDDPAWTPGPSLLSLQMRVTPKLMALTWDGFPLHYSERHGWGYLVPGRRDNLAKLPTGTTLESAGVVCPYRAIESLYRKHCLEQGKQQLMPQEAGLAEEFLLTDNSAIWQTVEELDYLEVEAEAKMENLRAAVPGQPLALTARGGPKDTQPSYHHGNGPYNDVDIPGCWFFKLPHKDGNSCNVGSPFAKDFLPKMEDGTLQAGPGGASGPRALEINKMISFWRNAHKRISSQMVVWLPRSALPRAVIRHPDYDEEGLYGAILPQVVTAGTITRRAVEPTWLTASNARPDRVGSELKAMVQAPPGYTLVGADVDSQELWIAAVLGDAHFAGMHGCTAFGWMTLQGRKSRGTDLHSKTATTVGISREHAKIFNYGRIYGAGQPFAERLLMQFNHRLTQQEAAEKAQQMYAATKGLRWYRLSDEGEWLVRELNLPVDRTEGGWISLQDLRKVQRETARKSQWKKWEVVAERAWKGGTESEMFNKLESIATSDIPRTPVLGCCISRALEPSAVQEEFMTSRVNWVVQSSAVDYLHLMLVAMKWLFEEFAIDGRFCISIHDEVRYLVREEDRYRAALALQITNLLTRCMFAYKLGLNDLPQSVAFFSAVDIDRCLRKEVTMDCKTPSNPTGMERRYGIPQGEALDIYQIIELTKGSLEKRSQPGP
Chain of POLγA R232H;POLγB (Q9UHN1 25-485, chain 2 of 2): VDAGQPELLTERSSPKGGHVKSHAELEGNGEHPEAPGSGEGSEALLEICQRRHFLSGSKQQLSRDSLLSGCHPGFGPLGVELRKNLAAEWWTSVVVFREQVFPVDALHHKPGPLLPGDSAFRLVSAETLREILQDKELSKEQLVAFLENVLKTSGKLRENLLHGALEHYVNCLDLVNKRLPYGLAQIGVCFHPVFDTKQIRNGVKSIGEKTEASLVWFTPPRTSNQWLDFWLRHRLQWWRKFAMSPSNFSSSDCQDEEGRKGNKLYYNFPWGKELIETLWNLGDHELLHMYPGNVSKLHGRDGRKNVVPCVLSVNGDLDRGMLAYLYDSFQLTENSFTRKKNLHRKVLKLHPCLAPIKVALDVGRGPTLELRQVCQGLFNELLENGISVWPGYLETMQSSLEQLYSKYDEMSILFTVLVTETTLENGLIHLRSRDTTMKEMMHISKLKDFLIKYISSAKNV

[4] = biological target: POLγA G303R;POLγB (human?;human?, UniProt P54098;Q9UHN1 26-1239;25-485, G303R|)
Chain of POLγA G303R;POLγB (P54098 26-1239 G303R, chain 1 of 2): as the sequence (P54098 26-1239 R232H, chain 1 of 2) above, with H207R, G278R counted along it
Chain of POLγA G303R;POLγB (Q9UHN1 25-485, chain 2 of 2): as the sequence (Q9UHN1 25-485, chain 2 of 2) above

[5] = biological target: POLγA S305R;POLγB (human?;human?, UniProt P54098;Q9UHN1 26-1239;25-485, S305R|)
Chain of POLγA S305R;POLγB (P54098 26-1239 S305R, chain 1 of 2): as the sequence (P54098 26-1239 R232H, chain 1 of 2) above, with H207R, S280R counted along it
Chain of POLγA S305R;POLγB (Q9UHN1 25-485, chain 2 of 2): as the sequence (Q9UHN1 25-485, chain 2 of 2) above

[6] = biological target: POLγA R275Q;POLγB (human?;human?, UniProt P54098;Q9UHN1 26-1239;25-485, R275Q|)
Chain of POLγA R275Q;POLγB (P54098 26-1239 R275Q, chain 1 of 2): as the sequence (P54098 26-1239 R232H, chain 1 of 2) above, with H207R, R250Q counted along it
Chain of POLγA R275Q;POLγB (Q9UHN1 25-485, chain 2 of 2): as the sequence (Q9UHN1 25-485, chain 2 of 2) above

[7] = biological target: POLγA H277L;POLγB (human?;human?, UniProt P54098;Q9UHN1 26-1239;25-485, H277L|)
Chain of POLγA H277L;POLγB (P54098 26-1239 H277L, chain 1 of 2): as the sequence (P54098 26-1239 R232H, chain 1 of 2) above, with H207R, H252L counted along it
Chain of POLγA H277L;POLγB (Q9UHN1 25-485, chain 2 of 2): as the sequence (Q9UHN1 25-485, chain 2 of 2) above

Measured: binding result

Chain of POLγA L304R;POLγB (P54098 26-1239 L304R, chain 1 of 2): as the sequence (P54098 26-1239 R232H, chain 1 of 2) above, with H207R, L279R counted along it
Chain of POLγA L304R;POLγB (Q9UHN1 25-485, chain 2 of 2): as the sequence (Q9UHN1 25-485, chain 2 of 2) above
Chain of POLγA G268A;POLγB (P54098 26-1239 G268A, chain 1 of 2): as the sequence (P54098 26-1239 R232H, chain 1 of 2) above, with H207R, G243A counted along it
Chain of POLγA G268A;POLγB (Q9UHN1 25-485, chain 2 of 2): as the sequence (Q9UHN1 25-485, chain 2 of 2) above

B1: primed DNA template (20/35-mer) (dsDNA)
DNA 1: CGGTCGAGTCTAGAGGAGCC
DNA 2: GACTACGTCTATCCGGGCTCCTCTAGACTCGACCG
binds: all assays above

From paper PMC4557304
